Consider 2 molecules from paper PMC3033224 (Nature chemical biology, 2010).

The target in this assay is recombinant human MCL-1ΔNΔC (amino acids 172–320) (human, UniProt Q07820 172-320). Kind of assay: fluorescence polarisation.

Positions of bridges follow the written chain, without caps; N, C: chain ends. Non-standard residues stand in square brackets, D forms with d. No end group written: not given here. *: point of attachment. FITC = O=C1OC2(c3ccc(O)cc3Oc3cc(O)ccc32)c2ccc(NC(=S)*)cc21; S5 = C=CCCC[C@](C)(N)C(=O)O; Nle = CCCC[C@H](N)C(=O)O; βAla = NCCC(=O)O A value given as a limit tells only on which side of the number the result lay.

recombinant human MCL-1ΔNΔC (amino acids 172–320), sequence (Q07820 172-320, stated change not applied): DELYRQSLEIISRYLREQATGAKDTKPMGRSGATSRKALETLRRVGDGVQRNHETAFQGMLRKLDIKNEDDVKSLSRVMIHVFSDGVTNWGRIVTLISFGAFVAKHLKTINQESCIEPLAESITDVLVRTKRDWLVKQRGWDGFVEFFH

As a reminder, the Kd is the constant that tells how readily two partners part at equilibrium. Consider {FITC-βAla}-QWAREIGAQLR[S5][Nle]AD[S5]LNAQY (staple 12-16) [FITC-PUMA SAHBA], for which the Kd is ≤ 50 nM.

As to {FITC-βAla}-DIIRNIARHLA[S5]VGD[S5][Nle]DRSI (staple 12-16) [FITC-BID SAHBA], the Kd was ≤ 50 nM.
